# Measured values as given in publication PMC8843702 (The Journal of Clinical Investigation, 2022).
# Columns and labels:
# SARS-CoV-1 S protein = SARS-CoV-1 S protein (SARS-CoV-1, strain not named (P59594 …, UniProt P59594)); test: SPR; details: both partners purified
# SARS-CoV-2 S protein = SARS-CoV-2 S protein (SARS-CoV-2, Wuhan-Hu-1 reference, UniProt P0DTC2); test: SPR; details: both partners purified
binder,measurement,setting,value
"P14-44 (antibody, V domains shown, also called P14-44 IgG; source: HEK293F, transfected, purified (Protein A)) VH: QVQLVQSGAEVKKPGASVKVSCKASGYIFTSYSMHWVRQAPGQGLEWMGTIKPSDDSTNYAQKFQGRVSMTRDTSTSTVYMELSSLRYEDTAVYYCAREARGYYDRSGYYHPGYFDYWGQGTLVTVSS VL: QSVLTQPASVSGSPGQSITISCTGTSSDVGGYNFVSWYQQHPGKAPKLMIYEVSDRPSGVSSRFSGSKSGNTASLTISGLQAEDEADYYCFSYTTSTTWVFGGGTKLTVL",Kd,SARS-CoV-1 S protein,4.3 nM
same,Kd,SARS-CoV-2 S protein,0.55 nM
